Measurements published in patent publication US20180346554A1 (University of Pennsylvania, published 2018).

Legend:
Assay in all cases: cell-based or functional assay
[1] = target: Env of the HIV-1 pseudotyped virus Bal26 (clade B, Tier 1) (HIV-1 (clade B, Bal26))
[2] = target: Env of the HIV-1 pseudotyped virus Q23Env17 (clade A, Tier 1) (HIV-1 (clade A, Q23Env17))
[3] = target: Env of the HIV-1 pseudotyped virus SF162S (clade B, Tier 1) (HIV-1 (clade B, SF162S))

B1: HIV-1 Env-Fab (Fab generated from the VRC01 antibody by pHIV-1 Env Fab) (Fab, V domains shown)
VH: QVQLVQSGGQMKKPGESMRISCRASGYEFIDCTLNWIRLAPGKRPEWMGWLKPRGGAVNYARPLQGRVTMTRDVYSDTAFLELRSLTVDDTAVYFCTRGKNCDYNWDFEHWGRGTPVIVSS
VL: QIVLTQSPGTLSLSPGETAIISCRTSQYGSLAWYQQRPGQAPRLVIYSGSTRAAGIPDRFSGSRWGPDYNLTISNLESGDFGVYYCQQYEFFGQGTKVQVDI
With B1 the “plateau percent neutralization (TZM-Bl luciferase assay, serum 1:50)” value (from here on “plateau percent neutralization”) [1] was about 62%, the “plateau percent neutralization” value [2] was about 60% and the “plateau percent neutralization” value [3] was about 70%.
